Source: article PMC11161652, “ASXLs binding to the PHD2/3 fingers of MLL4 provides a mechanism for the recruitment of BAP1 to active enhancers” (Nature Communications, 2024)

Key:
[1] = system: GST-MLL3PHD2/3; test: GST pull-down, WT MLL3PHD2/3; type: binding, human; details: WT GST-MLL3PHD2/3; HEK293FT lysate, 3 h at 4 °C, western blot; n = 3
Description: (§1) Pull-down assays were performed by mixing resin-bound GST-MLL3PHD2/3 and GST-MLL4PHD2/3 (wild type and mutants) with lysates of HEK293FT expressing Myc-ASXL1, Myc-ASXL2 or Myc-ASXL2ΔMBH. Pellets of HEK293FT cells transfected with the appropriate pDEST expression construct (15 μg/dish using polyethylenimine (PEI)) were lysed with 10 times their volume of lysis buffer (50 mM Tris pH 7.3, 100 mM NaCl, 1 mM DTT, 1 mM EDTA, 1 mM PMSF, 0.1% Tween20, 1/100 anti-protease (Sigma)) and sonicated with a probe sonicator (Branson digital sonifier 450) calibrated at 40% amplitude for 3–4 rounds during 40–60 s. Lysates were then centrifuged in a Sorvall Lynx 6000 (rotor: F21-8x50Y) at 15,000 RPM during 20 min. Approximatively 9 μg of purified GST-fusion proteins bound to GSH resin (Sigma, G4510) were used for each condition. Final volume of GSH resin was adjusted to 30 μl per condition with empty GSH beads and incubated with 1.5 mL of HEK293FT lysate expressing Myc-ASXL1, Myc-ASXL2 or Myc-ASXL2ΔMBH for 3 h at 4 °C on a rotative system. A fraction of the reaction mixture (80 μL) was collected as the input. After the incubation, beads were washed 5 times and mixed with 100 μL of Laemmli buffer. Samples were loaded on 8% or 15% SDS-acrylamide gels and processed for western blotting.

[2] = system: GST-MLL4PHD2/3; test: GST pull-down, WT MLL4PHD2/3; type: binding, human; details: WT GST-MLL4PHD2/3; HEK293FT lysate, 3 h at 4 °C, western blot; n = 3
Description: as §1

[3] = system: MLL4PHD2/3 or MLL3PHD2/3 mutants; test: GST pull-down, mutated MLL3/4PHD2/3; type: binding, human; details: mutated GST-MLL3/4PHD2/3; HEK293FT lysate, 3 h at 4 °C, western blot; n = 3
Description: as §1

[4] = system: D372K/D400K MLL3PHD2/3 mutant; test: GST pull-down, D372K/D400K MLL3PHD2/3; type: binding, human; details: D372K/D400K GST-MLL3PHD2/3; HEK293FT lysate, western blot
Description: as §1

[5] = system: PR-DUB complex; test: Tandem affinity purification: association with PR-DUB complex; type: cell-based, human; details: K562 soluble nuclear extracts, 3Flag-2Strep tag, western blot and mass spectrometry
Description: (§2) Isogenic K562 cell lines expressing 3xFlag2xStrep-tagged ASXL2 WT and ΔMBH (aa 650-670), were generated by integration at the AAVS1 safe harbor locus after DSB induction and recombination targeted by co-transfection with a ZFN expression plasmid, as previously described. 2 × 10^5 cells were transfected with 400 ng of ZFN expression vector and 4 μg of donor constructs. Selection and cloning were performed in RPMI medium supplemented with 0.5 μg/mL puromycin starting 2–3 days post transfection. Clones were obtained by limiting dilution and expanded before harvest for western blot analysis.
(§3) For purification of native complexes, after large-scale expansion of K562 clones, affinity purifications of tagged ASXL2 WT and ΔMBH (aa 650-670) were performed on nuclear extracts as previously described. Briefly, nuclear extracts were prepared following standard procedures and pre-cleared with CL6B Sepharose beads. […] Typically, 5–15 μl of the elutions (1–3% of total) was loaded on NuPAGE 4–12% Bis-Tris gels (Invitrogen) and analyzed by silver staining and western blots. […] Purified fractions were prepared and analyzed at the Proteomics Platform of the Quebec Genomic Center using an Orbitrap Fusion mass spectrometer (Thermo Fisher Scientific) as previously described. […]

[6] = system: MLL3/4 complexes; test: Tandem affinity purification: interaction with MLL3/4 complexes; type: cell-based, human; details: K562 soluble nuclear extracts, 3Flag-2Strep tag, western blot and mass spectrometry
Description: as §2, §3

[7] = system: H2AK119; test: H2AK119 deubiquitination assay; type: biochemical, human; details: purified complexes on human chromatin, 37 °C, 3 or 6 h, immunoblot
Description: The deubiquitination reactions were done by adding equivalent amounts of ASXL2 WT or ΔMBH (4 μl E1-F) native complexes purified from K562 cells to 0.5 μg of chromatin enriched extracts from K562 cells, incubated at 37 °C in 50 mM Tris-HCl pH 7.3, 50 mM NaCl, 1 mM MgCl2, 1 mM DTT, 1 mM PMSF, 10 μg/ml Leupeptin, 10 μg/ml Pepstatin A, 25 μg/ml Aprotinin. After 3 or 6 h incubation, 4X Laemmli buffer was added, the samples run on 15% SDS-PAGE and transferred on nitrocellulose membrane. Immunoblotting was performed with an anti-H2AK119ub (Cell Signaling, D27C4, rabbit polyclonal) diluted 1:2000 followed by HRP conjugated secondary goat anti-rabbit antibody (Sigma) used at a 1:10,000 dilution. The immunoblots were visualized using a Western Lightning plus-ECL reagent (Perkin-Elmer). Anti-H3 (Abcam, Ab1791, rabbit polyclonal) was used at a 1:50,000 dilution.
Cell pellets were harvested 2 days post-transfection and lysed with 10 times their own volume with EB300 lysis buffer (50 mM Tris pH 7.3, 300 mM NaCl, 0.5% Triton X100 (V/V), 5 mM EDTA, 50 mM NaF, 1 mM Na3VO4 (activated), 10 mM Beta-glycerol-phosphate, 1 mM DTT, 1 mM PMSF, 1/100 anti-protease (Sigma)). Lysates were incubated on ice for 30 min before centrifugation in a Sorvall Lynx 6000 (rotor: F21-8x50Y) at 15,000 RPM during 20 min. Supernatants were collected and diluted with EB0 (50 mM Tris pH 7.3, 0.5% Triton X100 (V/V), 5 mM EDTA, 50 mM NaF, 1 mM Na3VO4, 10 mM Beta-glycerol-phosphate, 1 mM DTT, 1 mM PMSF, 1/100 anti-protease) to adjust the final concentration of NaCl to 150 mM. Agarose anti-FlagM2 beads (40 μL) (Sigma, A2220) were added to each lysate and incubated overnight at 4 °C on a rotative system. The next day, beads were washed 5 times with the wash buffer (50 mM Tris pH 7.3, 150 mM NaCl, 0.5% Triton X100 (V/V), 1/500 anti-protease, 1 mM DTT, 1 mM PMSF). […] Following three elutions of 2 h each, the pooled fractions were incubated with 40 μL of anti-HA beads (Sigma A2095) overnight at 4 °C on a rotative system. […]

[8] = system: H3K4 (recombinant histone octamers or mono-nucleosomes); test: H3K4 histone methyltransferase assay; type: biochemical, human; details: purified complexes, 50 μM S-adenosyl-L-methionine, 8 h at 30 °C, n = 2
Description: Equivalent amounts of purified ASXL2 WT and ΔMBH complexes were incubated with 0.5 μg of reconstituted recombinant mono-nucleosomes or histone octamers as substrates. All HMT assays were performed in 50 mM Tris-HCl pH 8, 100 mM KCl, 5 mM MgCl2, 0.1 mM DTT, 10% glycerol in the presence of 50 μM S-adenosyl-L-methionine (Sigma, A7007). After an 8 h incubation at 30 °C, 4X Laemmli buffer was added, the samples run on 15% SDS-PAGE and transferred on nitrocellulose membrane. Immunoblotting was performed with an anti-H3K4me1 (Ab8895, rabbit polyclonal) diluted 1:1000 followed by HRP conjugated secondary goat anti-rabbit antibody (Sigma) used at a 1:10,000 dilution. The immunoblots were visualized using a Western Lightning plus-ECL reagent (Perkin-Elmer). Anti-H4 (Abcam, Ab7311, rabbit polyclonal) was used at a 1:2,500 dilution.

[9] = system: active enhancer upstream of GRHL2 gene in K562 ASXL2 KD cells; test: ChIP-qPCR at active enhancer upstream of GRHL2; type: cell-based, human; details: K562 ASXL2 KD cells complemented from AAVS1; IP/input corrected for total H3; three biological replicates
From the text: K562 cell lines with knocked down expression of endogenous ASXL2 were obtained after double infection of lentivirus expressing Cas9 and 4 different gRNAs targeting the end of exon 1 (pLENTI_CRISPR_V2, co-selection by FACS with GFP). Clone 1 L was selected (obtained with gRNA 1: 5′-[…]-3′ cutting at the very end of exon 1) for transfection of WT and DMBH ASXL2 vectors for integration and stable expression from the AAVS1 safe harbor, as described for the tagged K562 cell lines used for purification. Expression levels of endogenous ASXL2, WT and ΔMBH ASXL2 were monitored by running SDS-PAGE and transferring onto nitrocellulose membrane. Anti-FLAG M2 conjugated to horseradish peroxidase (A8592, Sigma) was used at 1:10,000 dilution and anti-ASXL2, at 1:2,000 (Cell Signaling (E623X), CS71257, lot:1). Immunoblots were visualized using a Western Lightning plus ECL reagent (Perkin-Elmer).
Crosslinked chromatin from K562 cells and immunoprecipitations were prepared as previously described. For chromatin immunoprecipitation, 100 μg of chromatin was incubated with 2 μg anti-H2AK119ub (Cell Signaling, 8240S, D27C4 lot:9) or 3 μg anti-H3 (Abcam, ab1791, lot GR3421644-1), 2 μg anti-H3Kme1 (Abcam, ab8895, lot GR442591-1), 2 μg anti-H3K27ac (Thermo Fisher, MA5-23516, lot: ZA4181671) or 0.3 μg anti-H3K27me3 (Cell Signaling, C36B11, 9733 S lot:19) antibodies overnight at 4 °C. 25 μl of Protein A Dynabeads were then added to each sample, and the mixtures were incubated at 4 °C for 4 h. The beads were washed extensively and eluted with 1% SDS and 0.1 M NaHCO3. Cross-linked samples were reversed by heating overnight at 65 °C in the presence of 0.2 M NaCl. Samples were then treated with RNase A and proteinase K for 2 h, and DNA was recovered using MinElute PCR purification Kit (Qiagen, 28004) according to the manufacturer’s instructions. Quantitative real-time PCR corrected for primer efficiencies in the linear range was performed using SYBR Green I (Roche, 04877352001) on a LightCycler 480 (Roche). Primers for 5′ end of active enhancer: Fwd: 5′-[…]; Rev: 5′-[…]; For 3′ end: Fwd: 5′-[…], Rev: 5′-[…].

B1: full-length ASXL2: full length wild type ASXL2 expressed in HEK293FT or K562 cells (protein)
chain: MREKGRRKKGRTWAEAAKTVLEKYPNTPMSHKEILQVIQREGLKEIRSGTSPLACLNAMLHTNSRGEEGIFYKVPGRMGVYTLKKDVPDGVKELSEGSEESSDGQSDSQSSENSSSSSDGGSNKEGKKSRWKRKVSSSSPQSGCPSPTIPAGKVISPSQKHSKKALKQALKQQQQKKQQQQCRPSISISSNQHLSLKTVKAASDSVPAKPATWEGKQSDGQTGSPQNSNSSFSSSVKVENTLLGLGKKSFQRSERLHTRQMKRTKCADIDVETPDSILVNTNLRALINKHTFSVLPGDCQQRLLLLLPEVDRQVGPDGLMKLNGSALNNEFFTSAAQGWKERLSEGEFTPEMQVRIRQEIEKEKKVEPWKEQFFESYYGQSSGLSLEDSKKLTASPSDPKVKKTPAEQPKSMPVSEASLIRIVPVVSQSECKEEALQMSSPGRKEECESQGEVQPNFSTSSEPLLSSALNTHELSSILPIKCPKDEDLLEQKPVTSAEQESEKNHLTTASNYNKSESQESLVTSPSKPKSPGVEKPIVKPTAGAGPQETNMKEPLATLVDQSPESLKRKSSLTQEEAPVSWEKRPRVTENRQHQQPFQVSPQPFLNRGDRIQVRKVPPLKIPVSRISPMPFHPSQVSPRARFPVSITSPNRTGARTLADIKAKAQLVKAQRAAAAAAAAAAAAASVGGTIPGPGPGGGQGPGEGGEGQTARGGSPGSDRVSETGKGPTLELAGTGSRGGTRELLPCGPETQPQSETKTTPSQAQPHSVSGAQLQQTPPVPPTPAVSGACTSVPSPAHIEKLDNEKLNPTRATATVASVSHPQGPSSCRQEKAPSPTGPALISGASPVHCAADGTVELKAGPSKNIPNPSASSKTDASVPVAVTPSPLTSLLTTATLEKLPVPQVSATTAPAGSAPPSSTLPAASSLKTPGTSLNMNGPTLRPTSSIPANNPLVTQLLQGKDVPMEQILPKPLTKVEMKTVPLTAKEERGMGALIATNTTENSTREEVNERQSHPATQQQLGKTLQSKQLPQVPRPLQLFSAKELRDSSIDTHQYHEGLSKATQDQILQTLIQRVRRQNLLSVVPPSQFNFAHSGFQLEDISTSQRFMLGFAGRRTSKPAMAGHYLLNISTYGRGSESFRRTHSVNPEDRFCLSSPTEALKMGYTDCKNATGESSSSKEDDTDEESTGDEQESVTVKEEPQVSQSAGKGDTSSGPHSRETLSTSDCLASKNVKAEIPLNEQTTLSKENYLFTRGQTFDEKTLARDLIQAAQKQMAHAVRGKAIRSSPELFSSTVLPLPADSPTHQPLLLPPLQTPKLYGSPTQIGPSYRGMINVSTSSDMDHNSAVPGSQVSSNVGDVMSFSVTVTTIPASQAMNPSSHGQTIPVQAFSEENSIEGTPSKCYCRLKAMIMCKGCGAFCHDDCIGPSKLCVSCLVVR
modifications: left off: Myc, end not stated, kept
notes: full length wild type ASXL2 expressed in HEK293FT or K562 cells
In the case of B1, the association in pull-down [1] is reported as “detected”, the association in pull-down [2] is reported as “detected” and the association in pull-down [3] is reported as “not with the MLL4PHD2/3 or MLL3PHD2/3 mutants”. For the same molecule, the association in pull-down [4] was “unable to bind full-length ASXL2”, the “association with PR-DUB complex” value [5] was “stably associates with the expected components of the PR-DUB complex” and the “interaction with MLL3/4 complexes” value [6] was “co-fractionation of the PR-DUB complex with the components of the MLL3/4 complexes”. The “de-ubiquitination of H2AK119” value [7] was “efficient and equivalent de-ubiquitination of H2AK119”, the “mono-methylation of H3K4” value [8] was “clearly detected” and the H2AK119ub level [9] was “decrease in H2AK119ub level at this enhancer”. The H3K4me1 level [9] was “not affected”.
